This series is described as follows: self-splicing fitness, log relative to wild type (ln ratio); higher = more splicing; Tetrahymena group I intron in knt gene, E. coli kanamycin selection, DiMSum; sequences stand for … in CUCUCU…GGAGGGAAAAGUUAUCAGGCAUGCACCUGGUAGCUAGUCUUUAAACCAAUAGAUUGCAUCGGUUUAAAAGGCAAGACCGUCAAAUUGCGGGAAAGGGGUCAACAGCCGUUCAGUACCAAGUCUCAGGGGAAACUUUGAGAUGGCCUUGCAAAGGGUAUGGUAAUAAGCUGACGGACAUGGUCCUAACCACGCAGCCAAGUCCUAAGUCAACAGAUCUUCUGUUGAUAUGGAUGCAGUUCACAGACUAAAUGUCGGUCGGGGAAGAUGUAUUCUUCUCAUAAGAUAUAGUCGGACCUCUCCUUAAUGGGAGCUAGCGGAUGAAGUGAUGCAACACUGGAGCCGCUGGGAACUAAUUUGUAUGCGAAAGUAUAUUGAUUAGUUUUGGAGUACUCGUGGUCG
The procedure, abridged:
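A randomised library covering all eight P1ex-region intron nucleotides was built with the intron in the knt kanamycin-resistance gene on pET-22b(+) and held in E. coli BL21(DE3). Cells were grown overnight at 37°C or 30°C on LB agar, with or without 25 μg/mL kanamycin, plus 100 μg/mL carbenicillin, 50 μM IPTG and 0.2% rhamnose, and pooled colonies were amplicon-sequenced on an Illumina HiSeq 2500. DiMSum fitness is the error-weighted combination of wild-type-normalised replicate fold changes, kanamycin versus none.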

± gives the uncertainty stated by the source.

For the sequence GUGCAGCAAUAUUACGAGAA, the “self-splicing fitness (ln)” value (37 °C) was -2.25 ± 0.3.
On to GGUCAGCAAUAUUACGUAGC, for which the “self-splicing fitness (ln)” value reads like this: (30 °C) -0.572 ± 0.067; (37 °C) -0.268 ± 0.081.
GCGGAGCAAUAUUACGCGGC: the “self-splicing fitness (ln)” value (30 °C) is -3.04 ± 0.48.
Consider GCUCAGCAAUAUUACGAUUG, for which the “self-splicing fitness (ln)” value (30 °C) was -2.83 ± 0.12 and the “self-splicing fitness (ln)” value (37 °C) is -1.11 ± 0.12.
In the same order, the values of CUGCAGCAAUAUUACGCGAU are -1.12 ± 0.09 and -0.167 ± 0.12.
The corresponding values for GUACAGCAAUAUUACGUUUU are -3.88 ± 0.17 and -2.72 ± 0.14.
Turning to UUUCAGCAAUAUUACGGGGA, the “self-splicing fitness (ln)” value (30 °C) was -2.43 ± 0.24 and the “self-splicing fitness (ln)” value (37 °C) was -0.33 ± 0.16.
In the same order, the values of CGCUAGCAAUAUUACGGGCG are -2.95 ± 0.28 and -2.74 ± 0.44.
As for UAGUAGCAAUAUUACGUCAA, the “self-splicing fitness (ln)” value (30 °C) is -2.07 ± 0.23 and the “self-splicing fitness (ln)” value (37 °C) was -2.44 ± 0.18.
With GGCGAGCAAUAUUACGGGAU, where the note is “37 °C”, the “self-splicing fitness (ln)” value is -2.21 ± 0.47.
UAUCAGCAAUAUUACGGGGU: the “self-splicing fitness (ln)” value runs as follows: (30 °C) -3.6 ± 0.2; (37 °C) -2.48 ± 0.17.
For the sequence AGUCAGCAAUAUUACGAGAC, the “self-splicing fitness (ln)” value is -4.42 ± 0.39 (30 °C) and -2.56 ± 0.24 (37 °C).
In the same order, the values of ACUCAGCAAUAUUACGACCU are -0.248 ± 0.12 and 0.216 ± 0.13.
On to GAACAGCAAUAUUACGGUAA, for which the “self-splicing fitness (ln)” value is -1.2 ± 0.059 (30 °C) and -0.286 ± 0.064 (37 °C).
Regarding AUGCAGCAAUAUUACGAUAA, the “self-splicing fitness (ln)” value reads like this: (30 °C) -1.55 ± 0.1; (37 °C) 0.424 ± 0.092.
In the same order, the values of UACGAGCAAUAUUACGUAGC are -3.67 ± 0.46 and -1.01 ± 0.21.
Regarding AUAAAGCAAUAUUACGCUCG, the “self-splicing fitness (ln)” value (30 °C) came to 0.147 ± 0.1 and the “self-splicing fitness (ln)” value (37 °C) came to 0.699 ± 0.13.
In the same order, the values of UAACAGCAAUAUUACGCGCU are -1.93 ± 0.096 and -0.612 ± 0.11.
As for UCGCAGCAAUAUUACGCUGA, the “self-splicing fitness (ln)” value runs as follows: (30 °C) -2.33 ± 0.21; (37 °C) -1.15 ± 0.14.
With UUAAAGCAAUAUUACGACAU, the “self-splicing fitness (ln)” value is, setting by setting: (30 °C) -0.271 ± 0.012; (37 °C) 0.189 ± 0.032.
For CAAUAGCAAUAUUACGGUCU, the “self-splicing fitness (ln)” value (30 °C) is -3.24 ± 0.31 and the “self-splicing fitness (ln)” value (37 °C) is -3.15 ± 0.35.
On to UAUGAGCAAUAUUACGUCCA, for which the “self-splicing fitness (ln)” value reads like this: (30 °C) -2.26 ± 0.26; (37 °C) -2.86 ± 0.4.
On to UAAAAGCAAUAUUACGCGGA, for which the “self-splicing fitness (ln)” value (30 °C) is -1.8 ± 0.08 and the “self-splicing fitness (ln)” value (37 °C) is -0.32 ± 0.082.
For GCGUAGCAAUAUUACGGCCA, the “self-splicing fitness (ln)” value (37 °C) is 0.769 ± 0.3.
Take ACCUAGCAAUAUUACGACCG: the “self-splicing fitness (ln)” value (30 °C) is -1.16 ± 0.13 and the “self-splicing fitness (ln)” value (37 °C) came out at 0.144 ± 0.12.
With CCUAAGCAAUAUUACGAUGU, the “self-splicing fitness (ln)” value was -2.84 ± 0.12 (30 °C) and -2.03 ± 0.15 (37 °C).
In the case of AGUUAGCAAUAUUACGAGUG, the “self-splicing fitness (ln)” value by setting is: (30 °C) -3.77 ± 0.31; (37 °C) -1.78 ± 0.25.
On to GUGUAGCAAUAUUACGGGUU, for which the “self-splicing fitness (ln)” value was -2.77 ± 0.21 (30 °C) and -1.22 ± 0.17 (37 °C).
In the same order, the values of GAAGAGCAAUAUUACGCCGU are -2.88 ± 0.44 and -2.96 ± 0.43.
In the same order, the values of UCCGAGCAAUAUUACGUUAG are -3.14 ± 0.15 and -2.56 ± 0.24.
Regarding UUAUAGCAAUAUUACGUGUU, the “self-splicing fitness (ln)” value (30 °C) is -4.16 ± 0.33 and the “self-splicing fitness (ln)” value (37 °C) was -3.11 ± 0.33.
Take CGUUAGCAAUAUUACGUCAG: the “self-splicing fitness (ln)” value is -0.851 ± 0.13 (30 °C) and 0.0149 ± 0.14 (37 °C).
In the case of AGGCAGCAAUAUUACGCCUC, the “self-splicing fitness (ln)” value (30 °C) is -3.08 ± 0.33.
For CUGAAGCAAUAUUACGUCUC, under “37 °C”, the “self-splicing fitness (ln)” value was -1.47 ± 0.18.
Regarding CCACAGCAAUAUUACGUGCU, the “self-splicing fitness (ln)” value by setting is: (30 °C) -3.61 ± 0.17; (37 °C) -2.88 ± 0.17.
The corresponding values for UCCCAGCAAUAUUACGCGAG are -3.41 ± 0.14 and -2.91 ± 0.2.
The corresponding values for CAGGAGCAAUAUUACGGCGC are -3.61 ± 0.36 and -3.31 ± 0.16.
In the case of UGGUAGCAAUAUUACGCGGG, the “self-splicing fitness (ln)” value runs as follows: (30 °C) -2.93 ± 0.2; (37 °C) -2.47 ± 0.2.
Consider GAAGAGCAAUAUUACGGGGG, for which the “self-splicing fitness (ln)” value is -3.04 ± 0.2 (30 °C) and -3.06 ± 0.29 (37 °C).
